Reference: US20250277030A1 (Zymeworks, published 2025)

Assays:
[1] = biological target: T1, human sodium-dependent phosphate transporter 2B (NaPi2b) (human, UniProt O95436 1-690); experiment: flow cytometry, IGROV-1 cells (endogenous NaPi2b), 24 h at 4 °C
T1 construct: UniProt ID is given as 095436 [sic]; also called hNaPi2b; Hu NaPi2b
T1 sequence: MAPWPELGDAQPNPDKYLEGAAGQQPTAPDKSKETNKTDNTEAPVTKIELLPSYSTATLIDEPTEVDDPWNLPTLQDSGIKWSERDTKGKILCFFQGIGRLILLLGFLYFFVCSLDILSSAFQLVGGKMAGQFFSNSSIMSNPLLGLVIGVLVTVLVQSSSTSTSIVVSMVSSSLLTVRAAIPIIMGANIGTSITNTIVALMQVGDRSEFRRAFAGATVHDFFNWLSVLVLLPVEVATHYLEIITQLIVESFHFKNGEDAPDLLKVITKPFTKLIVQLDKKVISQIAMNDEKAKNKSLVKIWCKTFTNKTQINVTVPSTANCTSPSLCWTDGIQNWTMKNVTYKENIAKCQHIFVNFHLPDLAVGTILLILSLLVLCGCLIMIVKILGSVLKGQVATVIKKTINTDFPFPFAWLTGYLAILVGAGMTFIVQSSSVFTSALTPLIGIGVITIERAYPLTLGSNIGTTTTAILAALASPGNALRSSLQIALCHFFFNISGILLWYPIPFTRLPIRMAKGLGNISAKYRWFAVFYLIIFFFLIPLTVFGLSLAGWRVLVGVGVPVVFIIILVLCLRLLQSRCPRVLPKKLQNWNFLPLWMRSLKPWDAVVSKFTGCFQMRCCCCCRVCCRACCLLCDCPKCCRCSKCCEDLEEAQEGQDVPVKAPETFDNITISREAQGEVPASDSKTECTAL
Protocol: (§1) IGROV-1 cells express endogenous NaPi2b at a high level.
(§2) Briefly, cells were seeded at 50,000 cells/well in conical-bottom 96-well plates and treated with test antibody for 24 hours at 4° C. to prevent internalization. […] Following incubation, cells were washed and stained with anti-Human IgG Fc AF647 conjugate (Jackson Immuno Research Labs, West Grove, PA; Cat. No. 109-605-098) at 4° C. for 30 min. Following incubation and washing, fluorescence was detected by flow cytometry on a BD LSRFortessa™ Cell Analyzer (BD Biosciences, Franklin Lake, NJ) with 1,000 minimum events collected per well. The AF647/APC-A GeoMean (fluorescence signal geometric mean, proportional to anti-Human AF647 binding) was calculated for the live cell population using FlowJo™ Version 10.8.1 (BD Biosciences, Franklin Lake, NJ) and plotted for each test antibody using GraphPad Prism Version 9 (GraphPad Software, San Diego, CA).

[2] = biological target: T1, human sodium-dependent phosphate …; experiment: flow cytometry, IGROV-1 cells (endogenous NaPi2b), 24 h at 4 °C; apparent Kd
Protocol: as §1, §2

[3] = biological target: T1, human sodium-dependent phosphate …; experiment: flow cytometry on IGROV-1 cells (endogenous NaPi2b), 24 h at 4 C, anti-human IgG Fc AF647 detection
Protocol: as §1, §2

[4] = biological target: T1, human sodium-dependent phosphate …; experiment: flow cytometry, HEK293-6e cells transfected with human NaPi2b
Protocol: (§3) The binding cross-reactivity of humanized antibody variant v29456 to human, cynomolgus and mouse NaPi2b was assessed by flow cytometry using HEK293-6e transfected cells.
(§4) Briefly, HEK293-6e cells were transfected for ˜24 hours to transiently express human NaPi2b, cynomolgus or mouse NaPi2b, at 1 μg of DNA per 1 million cells. Following transfection, 50,000 cells per well were seeded in V-bottom 96-well plates and incubated with 200 nM of primary antibody for 18-24 hours at 4° C. to prevent internalization. Post-incubation, cells were washed and stained with anti-Human IgG Fc AF647 conjugate (Jackson Immuno Research Labs, West Grove, PA, Cat. No. 109-605-098, Lot. No. 124868) at 4° C. for 1 hour. Following staining and washing, fluorescence was detected by flow cytometry on BD LSRFortessa™ Cell Analyzer (BD Biosciences, Franklin Lake, NJ) with 10,000 minimum events collected per well. The AF647/APC-A GeoMean (fluorescence signal geometric mean, proportional to anti-Human AF647 binding) was calculated for the live singlet cell population for each primary antibody using FlowJo™ v8 software (BD Biosciences, Franklin Lake, NJ). The Bmax and Kd of each primary antibody were calculated using GraphPad Prism Version 9 (GraphPad Software, San Diego, CA)

[5] = biological target: T1, human sodium-dependent phosphate …; experiment: flow cytometry, IGROV-1 cells (endogenous NaPi2b); apparent Kd
Protocol: as §2
(§5) The ability of the humanized antibody variants v38591 and v29456 to bind to NaPi2b expressed on cells was assessed on endogenous NaPi2b-expressing tumor cell lines IGROV-1 (ovarian adenocarcinoma) and TOV-21G (ovarian carcinoma) by flow cytometry.
(§6) Cellular binding was performed according to methods described in Example 13.

[6] = biological target: T1, human sodium-dependent phosphate …; experiment: flow cytometry, TOV-21G cells (endogenous NaPi2b); apparent Kd
Protocol: as §2, §5, §6

[7] = biological target: T2, cynomolgus monkey NaPi2b (cynomolgus monkey, UniProt O95436 1-690 (human entry)); experiment: flow cytometry, HEK293-6e cells transfected with cynomolgus NaPi2b
T2 construct: Transiently expressed on HEK293-6e cells; also called Cyno NaPi2b
T2 chain: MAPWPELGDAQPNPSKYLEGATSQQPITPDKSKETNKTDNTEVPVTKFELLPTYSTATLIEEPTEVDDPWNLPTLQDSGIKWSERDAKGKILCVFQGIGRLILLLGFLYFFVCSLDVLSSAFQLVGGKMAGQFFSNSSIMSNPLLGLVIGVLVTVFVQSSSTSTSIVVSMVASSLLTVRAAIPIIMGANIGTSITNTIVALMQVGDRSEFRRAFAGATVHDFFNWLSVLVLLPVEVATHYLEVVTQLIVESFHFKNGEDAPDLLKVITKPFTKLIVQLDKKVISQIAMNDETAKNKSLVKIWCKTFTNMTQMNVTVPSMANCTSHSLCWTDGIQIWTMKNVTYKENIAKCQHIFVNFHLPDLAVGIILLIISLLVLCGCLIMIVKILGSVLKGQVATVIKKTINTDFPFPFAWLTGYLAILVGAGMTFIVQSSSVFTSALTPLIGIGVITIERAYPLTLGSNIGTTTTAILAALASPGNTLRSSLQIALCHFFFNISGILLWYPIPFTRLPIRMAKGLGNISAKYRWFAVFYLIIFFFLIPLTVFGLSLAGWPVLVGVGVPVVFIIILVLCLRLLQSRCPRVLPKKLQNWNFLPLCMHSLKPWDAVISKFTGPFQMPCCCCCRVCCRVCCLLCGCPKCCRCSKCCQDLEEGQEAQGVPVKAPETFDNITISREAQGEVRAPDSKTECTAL
Protocol: as §3, §4

[8] = biological target: T1, human sodium-dependent phosphate …; experiment: flow cytometry, HEK293-6e cells transfected with human NaPi2b; apparent Kd
Protocol: as §3, §4

[9] = biological target: T1, human sodium-dependent phosphate …; experiment: as above; remark: listed apart in the source
Protocol: The binding cross-reactivity of humanized antibody variant v38591 to human NaPi2b, NaPi2a, and NaPi2c was assessed by flow cytometry using HEK293-6e transfected cells.
Following transfection, cells were seeded at 50,000 cells/well in conical-bottom 96-well plates and treated with test antibody for 24 hours at 4° C. to prevent internalization. Following incubation, cells were washed and stained with anti-Human IgG Fc AF647 conjugate (Jackson Immuno Research Labs, West Grove, PA; Cat. No. 109-605-098) or anti-Rabbit IgG F(ab″)2 AF647 conjugate (Jackson Immuno Research Labs, West Grove, PA; Cat. No. 111-605-047). Following incubation and washing, fluorescence was detected by flow cytometry on a BD LSRFortessa™ Cell Analyzer (BD Biosciences, Franklin Lake, NJ) with 1,000 minimum events collected per well. The AF647/APC-A GeoMean (fluorescence signal geometric mean, proportional to anti-Human AF647 binding) was calculated for the live cell population using FlowJo™ Version 10.8.1 (BD Biosciences, Franklin Lake, NJ) and plotted for each test antibody using GraphPad Prism Version 9 (GraphPad Software, San Diego, CA).

[10] = biological target: T2, cynomolgus monkey NaPi2b; experiment: flow cytometry, HEK293-6e cells transfected with cynomolgus NaPi2b; apparent Kd
Protocol: as §3, §4

[11] = biological target: T1, human sodium-dependent phosphate …; experiment: flow cytometry on IGROV-1 cells (endogenous NaPi2b), 24 h at 4 C, anti-human IgG Fc AF647 detection; remark: listed apart in the source
Protocol: as §2, §5, §6

[12] = biological target: T1, human sodium-dependent phosphate …; experiment: flow cytometry on TOV-21G cells (endogenous NaPi2b), 24 h at 4 C, anti-human IgG Fc AF647 detection
Protocol: as §2, §5, §6

[13] = biological target: T1, human sodium-dependent phosphate …; experiment: KinExA, IGROV-1 cells (endogenous NaPi2b) as titrant, monovalent antibody constant at 50 and 500 pM, N-curve analysis
Protocol: The cell-binding assay was set up using the antibody constructs or variants as constant binding partner at two different concentrations of 50 pM and 500 pM. For the titration curve with antibody variants fixed at 50 pM, at least 10 million IGROV-1 cells were used as titrant. For the titration curve with antibody variants fixed at 500 pM, at least 5 million cells were used as titrant. The antibody variants and cells were mixed in PBS pH 7.4, 1 mg/mL BSA, 0.2% NaN₃ and incubated at 4° C. for 7 days with gentle rotation until equilibrium was reached. After incubation, the mixture of antibody variants and cells was centrifuged to separate the cells from the unbound free antibody variants. The free antibody variants were loaded onto the KinExA 3200 (Sapidyne, Boise, Idaho) with biotinylated—anti-human IgG PMMA as solid phase and 0.5 μg/mL of Alexa 647 goat anti-human IgG (Jackson ImmunoResearch, West Grove, PA) as detection antibody.
N-curve analysis was used to calculate the affinity and receptor expression level with the concentrations of antibody variant as reference point.

B1: v23855, parental mouse-human chimeric anti-NaPi2b IgG1/kappa antibody (antibody, V domains shown)
VH: QAYLQQSGAELVRPGASVKMSCKASGFTFTSYNVHWVKQTPRQGLEWIAAISPGNGDLSYNQRFKDKATLTVDRSSSTAYMQLSGLTSEDSAVYFCARGRTGMGAVDYWGQGTSVTVSS
VL: DVQMTQTASSLSASLGDRVTISCRASQDVYSYLNWYQQKPHGTVKLLIYYTSRLQSGVPSRFTGSGSGTDYSLTISNLEPEDIATYYCQQYNIFPWTFGGGTKLEIKR
notes: Full-size antibody: mouse VH/VL appended to human IGHG1*01 CH1-hinge-CH2-CH3 (ends at G446) and IGKC*01; also called parental chimeric
Bmax (MFI) [1]: 43700 MFI | Kd [2]: 840 pM | EC50 (read off the curve) [3]: ~800 pM

B2: v18993, reference anti-NaPi2b antibody lifastuzumab (antibody, human IgG1, kappa)
heavy 1: GEVQLVESGGGLVQPGGSLRLSCAASGFSFSDFAMSWVRQAPGKGLEWVATIGRVAFHTYYPDSMKGRFTISRDNSKNTLYLQMNSLRAEDTAVYYCARHRGFDVGHFDFWGQGTLVTVSSASTKGPSVFPLAPSSKSTSGGTAALGCLVKDYFPEPVTVSWNSGALTSGVHTFPAVLQSSGLYSLSSVVTVPSSSLGTQTYICNVNHKPSNTKVDKKVEPKSCDKTHTCPPCPAPELLGGPSVFLFPPKPKDTLMISRTPEVTCVVVDVSHEDPEVKFNWYVDGVEVHNAKTKPREEQYNSTYRVVSVLTVLHQDWLNGKEYKCKVSNKALPAPIEKTISKAKGQPREPQVYVYPPSRDELTKNQVSLTCLVKGFYPSDIAVEWESNGQPENNYKTTPPVLDSDGSFALVSKLTVDKSRWQQGNVFSCSVMHEALHNHYTQKSLSLSPG
heavy 2: not shown
light: GDIQMTQSPSSLSASVGDRVTITCRSSETLVHSSGNTYLEWYQQKPGKAPKLLIYRVSNRFSGVPSRFSGSGSGTDFTLTISSLQPEDFATYYCFQGSFNPLTFGQGTKVEIKRTVAAPSVFIFPPSDEQLKSGTASVVCLLNNFYPREAKVQWKVDNALQSGNSQESVTEQDSKDSTYSLSSTLTLSKADYEKHKVYACEVTHQGLSSPVTKSFNRGEC
notes: Two different heavy chain clones (CL_#11677, CL_#11678)
Bmax (APC-A GeoMean) [4]: 1610 APC-A GeoMean | Kd [5]: 810 pM | Kd [6]: 670 pM | Bmax (APC-A GeoMean) [7]: 1560 APC-A GeoMean | Kd [8]: 1220 pM | Kd [9]: 5760 pM | Kd [10]: 6270 pM | EC50 (read off the curve) [11]: ~800 pM | EC50 (read off the curve) [12]: ~700 pM

B3: v29814, monovalent format of parental chimeric variant 23855 (antibody, V domains shown)
VH: B1 VH
VL: DVQMTQTASSLSASLGDRVTISCRASQDVYSYLNWYQQKPHGTVKLLIYYTSRLQSGVPSRFTGSGSGTDYSLTISNLEPEDIATYYCQQYNIFPWTFGGGTKLEIK
notes: Only said to be the monovalent format of v23855; it is captured and detected with anti-human IgG; also called v29814 (parental chimeric)
Kd [13]: 150 pM
